We go through 22 sequences from the DeepSol protein solubility set.

This data set in a line: soluble on expression in E. coli; label from the status in PepcDB or PDB records.
With “MTTTSAFMLNVRLDNVAVVAIDVPGEKVNTLKAEFATQVRAILKQIRENKALQGVVFISAKADNFIAGADINMIGHCQNAQEAETLARQGQQLMAEIQALPVPVIAAIHGACLGGGLEMALACHRRICTDDVKTVLGLPEVQLGLLPGSGGTQRLPRLVGVSTALDMILTGKQLRARQALKAGLVDDVVPQTILLEAAVELAKKERLAQRTLPVRERILAGPLGRALLFRLVRKKTAQKTQGNYPATERIIDVIETGLAQGSSSGYDAEARAFGELAMTPQSQALRAIFFASTEVKKDPGSDAPPGPLNSVGILGGGLMGGGIAWVTACKGGLPVRIKDINTQGINHALKYSWDLLETKVRRRHIKASERDKQLALISGSTDYRGFSHRDLVIEAVFEDLPLKQQMVAEVEQNCAAHTIFASNTSSLPIGDIAANAARPEQVIGLHFFSPVEKMPLVEVIPHASTSAQTIATTVKLAKKQGKTPIVVSDKAGFYVNRILAPYINEAIRMLTEGERVEHIDAALVKFGFPVGPIQLLDEVGIDTGTKIIPVLEAAYGERFSAPANVVASILNDDRKGRKNGRGFYLYGEKGRKSKKQVDPAIYKLIGVQGQSRLSAQQVAERCVMLMLNEAARCFDEKVIRSARDGDIGAVFGIGFPPFLGGPFRYMDALGPGEMVATLQRLAALYGPRYAPCEQLVRMAERREHFWTNGETDQGN”, the “soluble on expression in E. coli” value is “not soluble”. With “MTTVLLDSHVAYWWSAEPQRLSMAASQAIEHADELAVAAISWFELAWLAEQERIQLAIPVLSWLQQLAEHVRTVGITPSVAATAVALPSSFPGDPADRLIYATAIEHGWRLVTKDRRLRSHRHPRPVTVW” the entry was “soluble”.

“MTTWTLNHNNLTKFLTHAQLEPSLERESGLIYITVPAGEHELPLFFVIRNEGEVLQLVCYFPYQIQQNQRDTTARLLHLVNRDIDIPGFGMDEEQNIIFYRLVIPCLKGEINEDLLRVYIDTIKLICDSFFHAIGLISTGNMDLDELKKQAKLENNQSDQLEP”: the “soluble on expression in E. coli” value is listed as “soluble”. With “MTVFANRLLGPKGWLLNARVTIDGLFIASVEPDSAPLPGDVRVDTLLPAPGNLHSHSFQRAMAGMTEYRSRGRESFWTWRELMYRFLDRLTPEHVAAIAAQTFVEMQKAGYAAVGEFHYLHHRPGGGHYDDRAEMSARIVQAAAETGIGLTLLPVLYTHGGADGRALAGGQLRFGNDLDAYCTLVEGARAHTRTLAADARVGIAPHSLRAVSATDLAEVAARHPDGPVHIHIAEQTREVEEIEAAYGARPVDWLLNNAAVGPRWCLIHATHMSDAETRAMASTGAVAGLCPITEANLGDGIFNGVPYLEAGGAFGVGSDSNVLISLTEELRLLEYSQRLRDRERNVLAGAEGSTGAALYLGALRGGARALDRRAGEIAPGALADLVAIDSNAPALCALEPEQLLDGLIFAAGERVVSDLWSAGRHQVRAGRHVAEESIARRYGAALRDLLARV” the entry was “not soluble”; with “MTVKCKAEESLTCSCVDVGTIIDGSDCSVEVHQFYSTEADANAVLERLTKKARNTESDPCEIKSEIVAVENGVQLNASFTFSCQAEAMIFELANR”, “not soluble”; with “MTVPSIVLNDGNSIPQLGYGVYKVPPADTQRAVEEALEVGYRHIDTAAIYGNEEGVGAAIAASGIARDDLFITTKLWNDRHDGDEPAAAIAESLAKLALDQVDLYLVHWPTPAADNYVHAWEKMIELRAAGLTRSIGVSNHLVPHLERIVAATGVVPAVNQIELHPAYQQREITDWAAAHDVKIESWGPLGQGKYDLFGAEPVTAAAAAHGKTPAQAVLRWHLQKGFVVFPGSVRREHLEENLDVFDFDLTDTEIAAIDAMDPGDGSGRVSGHPDEVD”, “soluble”. With “MTVQQSGRRERKKAATRQKIADTALRLFLERGYDAVGIRDVAAEADVAVTTLFSHFASKEALVFEQDEDFEHRLTRAVTDRAPHEPLIPALRREILALVRHCTADSAAPIWRMIDASPALRKYDESVRLRHAEALATAIAADPTRTRSETAARTLARFVIDAYSLSREAPDPEAALDEIFPMIEAAWAAARPPHPT” the entry was “not soluble”; with “MTVRILAVCGNGQGSSMIMKMKVDQFLTQSNIDHTVNSCAVGEYKSELSGADIIIASTHIAGEITVTGNKYVVGVRNMLSPADFGPKLLEVIKAHFPQDVK”, “not soluble”. With “MTVSDHPQTVSQPDPESESRPSKTRLKQEMHALQALGERLVELEPARIAELDLPEKLAEALLEARKITSHGARRRHLQFIGKLMRAVDPLPVQEKLDAWQHTGMRHTAWLHQLERWRDRLISDETAVTEFVQTYPHTDVRQLRTLLRNIEKEKLAGKPPHNFRALFQLLRQIIPEIPG” the entry was “not soluble”. As to “MTVSDRELEECIRALLDARADSASICPSDVARAVAPDDWRPLMEPVREAAGRLADAGEVEVTQKGAVVDPRSARGPIRIRWTRTD”, the “soluble on expression in E. coli” value is given as “soluble”. With “MTVSTPPSIATGNAPSPDYRVEILSESLPFIQKFRGKTIVVKYGGAAMTSPELKSSVVSDLVLLACVGLRPILVHGGGPDINRYLKQLNIPAEFRDGLRVTDATTMEIVSMVLVGKVNKNLVSLINAAGATAVGLSGHDGRLLTARPVPNSAQLGFVGEVARVDPSVLRPLVDYGYIPVIASVAADDSGQAYNINADTVAGELAAALGAEKLILLTDVAGILENKEDPSSLIKEIDIKGVKKMIEDGKVAGGMIPKVKCCIRSLAQGVKTASIIDGRRQHSLLHEIMSDEGAGTMITG” the entry was “soluble”; with “MTVTDHILPTATNGRPPGLIIAAPSTNSGKTTVTLALHAALRRRSLTVQPYKCGPDYIDPAFHEIAAGRPCYNLDSWAFGQDRITYLLDAAAGADLCLAEGVMGLFDGGSARGAWGNGATADIAAFTGWPVVLVIDVAGQAQSAAALALGFARYRSDVRIAGVILNNVASARHEALVRDGFAAQDIPVLGGFERQRDLTLKNRHLGLVQARETARLDIRLQQLADSAVRGIDLDALIRAAQPARPIASTIRPLTPPGQRIALAHDDAFSFIYPHLTAGWRAAGAEIVPFSPLNDEGPDPSCDAAWLPGGYPELHAGRLAAATRFKAALGAFAETRAVHGECGGYMTLGAGLIDADGTRHAMAGLLGLETDFASRKLHLGYRLATLHADAAGKAAGSVLRGHEYHYARVVTVADEPLAEIRDPAGQLTDETGSRRGHVTGTFFHLIDVAEEAIALEHHHHHH”, “not soluble”; with “MTVYKGSKKEAKPKECLLFFDKKTNTVRLEKITSNINVKKTRDLDQGTELALKRGIERLRTSSNNQRSGPSSPEEKAKIQKQMQRDTSDSSSDSDGSSDSDKSNGDSSDDEDESEKILLEEMKKPKPYTEREPAPPSSSNTYNHKESHVAPYISSSGNKNKDSEEKYGLALSESSDEDD”, “not soluble”. Under “MTYCLGIVTQAGLIMAADSRTNAGIDYISTYQKLFDFSLPGDRTIVICCSGNLSITQAVLSQLRRDLAGHFDINLHSLPTMYDLARYLGQKVRQLQESDRDWLKQDGIDFYCNFLLGGQIRGGPIELYLVYGQGNCIHATPETPYLQIGETKYGKPILDRTISFDTSLDMAAKCALMSLDSTMRSNLSVGPPLNLARYERDSLVAPMLVQFPAGHEYLVEMRRRWEISLKDAFMRLPDIDWSRQLMRSLSPVSESVP” stands “not soluble”. Turning to “MTYDYVIVGGGIVGVSTGWQLKRRYPEKSVLLIEKEAGFSRHQTGHNSGVIHAGVYYAPGSLKADFCKRGVERTLAFCAQHNIPVENCGKLLVATNEQELERMHALYDRCLQNQIDVEKLDAAQLKLAEPNIRGLGAILVKATSIVNYRLVTEKMAEAFMQLGGDVKIGTEVVGLEETPSSITLTCQQKNQRVSYQAKFLVTCSGLMADRLTKMLGLPTDFQIIPYRGEYYRLAPKHNQVVRHLIYPIPDPELPFLGVHLTRMIDGCVTVGPN”, the “soluble on expression in E. coli” value is “not soluble”. With “MTYELAIGDRAYSSWSLRGWLLFDAFGLPVRVRRARLYTDELPALLADFAPARTVPAMKTSAGTVVAESLAIAEELASRHPEAGIWPADPEHRAVARALAAEMHAGFGALRSHCPMNLRVSYEGCDPPEAVQADLARLERIWAEARARCSTEGPWLCGSYSAADVFFAPVAARIAGYGLAVSPEAQAYVAAHLAHPSFRRWRAMGAVDGADQEFYARPYPPRPWPGPAPLPARAVADGVAENDACPYSGAPVTDLLEIEGRIFGFCNPFCRDKTVADPEAWPAFTALLRHREGS” the entry was “not soluble”.

With “MTYGVISWWDYGHWIEAVAHRMPIANPFQAGIGNKYNNVPGASSFFTAENESYAEFVAEKLNVKYVVSDIEMETGKYYAMAVWAEGDLPLAEKYYGGYFYYSPTGTFGYANSQWDIPLNSIIIPLRIPSELYYSTMEAKLHLFDGSGLSHYRMIYESDYPAEWKSYSSQVNLNNESQVLQTALYEAVMRARYGVSPTLEHHHHHH”, the “soluble on expression in E. coli” value was “not soluble”. Under “MTYKGYLIDLDGTIYKGKDRIPAGEDFVKRLQERQLPYILVTNNTTRTPEMVQEMLATSFNIKTPLETIYTATLATIDYMNDMKRGKTAYVIGETGLKKAVAEAGYREDSENPAYVVVGLDTNLTYEKLTLATLAIQKGAVFIGTNPDLNIPTERGLLPGAGAILFLLEKATRVKPIIIGKPEAVIMNKALDRLGVKRHEAIMVGDNYLTDITAGIKNDIATLLVTTGFTKPEEVPALPIQPDFVLSSLAEWDFDER” stands “soluble”. Under “MVAIFDICAYFNNSILVIVDIIMTELLEPAARASTQETLTDQIFKKIQSAIVSGEIAAGSKISEPELARVYGISRGPLREAIHRLEGQKLVERTAHVGARVVSLSHQQLRELYQIRENLEGLACRLAAQSIDKQQILNLRDVLHLHAQDPDFKEGKGYYLQEGQDDFHYCIIKNCGNKTLEKMLCDELYHLIRMYRVQYSKTPNRPHRALSEHLHILNAIAEGDTELAELLMRRHIAASYRNIEQHFI” stands “not soluble”; under “MVAKDYPFYLTVKRANCSLEAPLGSGVAKDEEPSNKRVKPLSRVTSLANLIPPVKTTPLKRFSQTLQRSISFRSESRPDILAPRAWSRNATSSSTKRRDSKLWSETFDVCVNQVLTAKEIKRQEAIFELSQGEEDLIEDLKLAKKAYHDPMLKLSIMTEQELNQIFGTLDSLIPLHEELLSQLRDVRKPDGSTEHVGPILVGWLPCLSSYDSYCSNQVAAKALLDHKKQDHRVQDFLQRCLESPFSRKLDLWNFLDIPRSRLVKYPLLLREILRHTPNDNPDQQHLEEAINIIQGIVAEINTKTGESECRYYKERLLYLEEGQKDSLIDSSRVLCCHGELKNNRGVKLHVFLFQEVLVITRAVTHNEQLCYQLYRQPIPVKDLTLEDLQDGEVRLGGSLRGAFSNNERVKNFFRVSFKNGSQSQTHSLQANDTFNKQQWLNCIRQAKETVLSAAGQAGLLDSEGLVQGPGTENREPQGETKLEQMDQSDSESDCSMDTSEVSLECERMEQTDASCANSRPEESV”, “soluble”.

In the case of “MVDGFVQPVGEGLADQLVGHQVGYGGVQWDQCLAEVGDVAVVHFFHQAVRQVGFVEQGVEAVVAGEQRRRGEEELLGDLQHRLDPFLDAGFAGHAVGGVEQVRYLFDVGVDEAGEYVFRVLALRLDGAMQVGQAAGYQISQVTVAGFAEVRLLDEFTEGSGVHGVSHTTGMVKKRRNIAGGARRLRRDCHNRFVVMRG”, the “soluble on expression in E. coli” value is reported as “not soluble”. Under “MVDIVKRRDWEKKEKKKIAIERIDTLFTLAERVARYSPDLAKRYVELALEIQKKAKVKIPRKWKRRYCKRCHTFLIPGVNARVRLRTKRMPHVVITCLECGYIMRYPYLREVKQKRKKAT” stands “soluble”.
